This note sets out measurements from publication PMC8063757, “The DNA-binding protein HU is a molecular glue that attaches bacteria to extracellular DNA in biofilms” (The Journal of Biological Chemistry, 2020).

Several values for one entry are separate records, joined by “and”; a condition that tells them apart may be missing. Equal values may be shown once.

The target in series [1] is T1, HU-B K86A (Escherichia coli K-12, UniProt P0ACF4 1-90, K86A).
T1 sequence: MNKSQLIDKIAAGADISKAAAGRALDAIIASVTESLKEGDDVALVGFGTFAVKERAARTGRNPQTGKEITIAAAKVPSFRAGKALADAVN
In words: EMSA; EMSA on 0.7% or 1% agarose gels, EtBr stain; binding buffer, salt, pH and temperature not stated. As to conditions: protein: recombinant; chain copies: 2; label: none (EtBr stain); four-way junction of 4 strands, equimolar, one copy each; strands as printed are not perfectly complementary.

Series [2] has as its target T2, F47W HU-B (Escherichia coli K-12, UniProt P0ACF4 1-90, F47W).
T2 sequence: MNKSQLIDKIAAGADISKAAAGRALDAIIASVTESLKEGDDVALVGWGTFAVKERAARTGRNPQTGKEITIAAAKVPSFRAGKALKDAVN
Described as above. As to conditions: protein: recombinant; chain copies: 2; label: none (EtBr stain); four-way junction of 4 strands, equimolar, one copy each; strands as printed are not perfectly complementary.

Series [3] addresses LoodLysrHU-A (Escherichia coli K-12, UniProt P0ACF0 1-51+=SGGGGSGGGGS+75-90, K83A;K86A;internal_change). The series is described as above. As to conditions: protein: recombinant; chain copies: 2; label: none (EtBr stain); four-way junction of 4 strands, equimolar, one copy each; strands as printed are not perfectly complementary.
Series [4] addresses T3, LoodLysrHU-B (Escherichia coli K-12, UniProt P0ACF4 1-51+=SGGGGSGGGGS+75-90, K83A;K86A;internal_change).
T3 sequence: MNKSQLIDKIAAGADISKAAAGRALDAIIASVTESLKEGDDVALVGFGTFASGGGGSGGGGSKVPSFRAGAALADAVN
The description is as above. As to conditions: protein: recombinant; chain copies: 2; label: none (EtBr stain); four-way junction of 4 strands, equimolar, one copy each; strands as printed are not perfectly complementary.

Series [5] concerns the target LysrHU-A (Escherichia coli K-12, UniProt P0ACF0 1-90, K83A;K86A). The series is described as above. As to conditions: protein: recombinant; chain copies: 2; label: none (EtBr stain); four-way junction of 4 strands, equimolar, one copy each; strands as printed are not perfectly complementary.
For series [6], the target named is T4, HU-B K83A (Escherichia coli K-12, UniProt P0ACF4 1-90, K83A).
T4 sequence: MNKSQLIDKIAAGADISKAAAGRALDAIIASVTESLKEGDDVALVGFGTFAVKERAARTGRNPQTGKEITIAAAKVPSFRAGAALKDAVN
The description is as above. As to conditions: protein: recombinant; chain copies: 2; label: none (EtBr stain); four-way junction of 4 strands, equimolar, one copy each; strands as printed are not perfectly complementary.

In series [7] the target is T5, F79W HU-B (Escherichia coli K-12, UniProt P0ACF4 1-90, F79W).
T5 sequence: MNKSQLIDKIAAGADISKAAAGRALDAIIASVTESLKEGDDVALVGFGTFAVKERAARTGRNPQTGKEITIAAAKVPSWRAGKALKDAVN
The series is described as above. Conditions: protein: recombinant; chain copies: 2; label: none (EtBr stain); four-way junction of 4 strands, equimolar, one copy each; strands as printed are not perfectly complementary.

For series [8], the target named is LoodHU-A K86A (Escherichia coli K-12, UniProt P0ACF0 1-51+=SGGGGSGGGGS+75-90, K86A;internal_change). The description is as above. As to conditions: protein: recombinant; chain copies: 2; label: none (EtBr stain); four-way junction of 4 strands, equimolar, one copy each; strands as printed are not perfectly complementary.
In series [9] the target is T6, LoodHU-B K86A (Escherichia coli K-12, UniProt P0ACF4 1-51+=SGGGGSGGGGS+75-90, K86A;internal_change).
T6 sequence: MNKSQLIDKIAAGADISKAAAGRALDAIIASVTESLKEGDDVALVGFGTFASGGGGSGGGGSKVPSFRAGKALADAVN
The series is described as above. As to conditions: protein: recombinant; chain copies: 2; label: none (EtBr stain); four-way junction of 4 strands, equimolar, one copy each; strands as printed are not perfectly complementary.

In series [10] the target is T7, HU-B (Escherichia coli K-12, UniProt P0ACF4 1-90).
T7 sequence: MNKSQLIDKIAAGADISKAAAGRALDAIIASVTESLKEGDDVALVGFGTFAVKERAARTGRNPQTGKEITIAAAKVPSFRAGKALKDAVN
Described as above. As to conditions: protein: recombinant; chain copies: 2; label: none (EtBr stain); four-way junction of 4 strands, equimolar, one copy each; strands as printed are not perfectly complementary.

Series [11] addresses HU-A K83A (Escherichia coli K-12, UniProt P0ACF0 1-90, K83A). The description is as above. Conditions: protein: recombinant; chain copies: 2; label: none (EtBr stain); four-way junction of 4 strands, equimolar, one copy each; strands as printed are not perfectly complementary.
The target of series [12] is LoodHU-A K83A (Escherichia coli K-12, UniProt P0ACF0 1-51+=SGGGGSGGGGS+75-90, K83A;internal_change). The description is as above. As to conditions: protein: recombinant; chain copies: 2; label: none (EtBr stain); four-way junction of 4 strands, equimolar, one copy each; strands as printed are not perfectly complementary.
The target in series [13] is T8, LoodHU-B (Escherichia coli K-12, UniProt P0ACF4 1-51+=SGGGGSGGGGS+75-90, internal_change).
T8 sequence: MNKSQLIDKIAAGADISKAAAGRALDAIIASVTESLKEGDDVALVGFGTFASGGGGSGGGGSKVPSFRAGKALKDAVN
The series is described as above. Conditions: protein: recombinant; chain copies: 2; label: none (EtBr stain); four-way junction of 4 strands, equimolar, one copy each; strands as printed are not perfectly complementary.

In series [14] the target is T9, LysrHU-B (Escherichia coli K-12, UniProt P0ACF4 1-90, K83A;K86A).
T9 sequence: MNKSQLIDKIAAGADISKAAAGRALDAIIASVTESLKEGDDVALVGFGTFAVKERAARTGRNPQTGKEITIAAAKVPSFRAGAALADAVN
The description is as above. Conditions: protein: recombinant; chain copies: 2; label: none (EtBr stain); four-way junction of 4 strands, equimolar, one copy each; strands as printed are not perfectly complementary.

Series [15] addresses HU-A K86A (Escherichia coli K-12, UniProt P0ACF0 1-90, K86A). The description is as above. As to conditions: protein: recombinant; chain copies: 2; label: none (EtBr stain); four-way junction of 4 strands, equimolar, one copy each; strands as printed are not perfectly complementary.
The target in series [16] is T10, LoodHU-B K83A (Escherichia coli K-12, UniProt P0ACF4 1-51+=SGGGGSGGGGS+75-90, K83A;internal_change).
T10 sequence: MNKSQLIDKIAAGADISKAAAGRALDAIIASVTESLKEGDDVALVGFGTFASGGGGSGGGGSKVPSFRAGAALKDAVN
The description is as above. Conditions: protein: recombinant; chain copies: 2; label: none (EtBr stain); four-way junction of 4 strands, equimolar, one copy each; strands as printed are not perfectly complementary.

Series [17] concerns the molecule itself. Put plainly: cross-linking; glutaraldehyde added to HU-B or its variant alone (no f-LPS); 15% SDS-PAGE, Coomassie Blue G-250 staining.
Series [18] deals with the molecule itself. In words: SEC; Superdex-75 10/300GL on an AKTA Purifier-10; elution at ~12 ml, corresponding to ~25 kDa.

B1: 4WJ DNA (structured_DNA)
DNA 1: CCCTATAACCCCTGCATTGAATTCCTGTCTGATAA
DNA 2: GTAGTCGTGATAGGTGCAGGGGTTATAGGG
DNA 3: AACAGTAGCTCTTAATTCGAGCTCGCGCCCTATCACGACTA
DNA 4: TTTATCAGACTGGAATTCAAGCGCGAGCTCGAATAAGAGCTACTGT
As for B1, the binding result in [1] is “binds”; in series [2] it was “binds”; in series [3] it was “no binding”; in series [4], “no binding”; in series [5], “binds”; in series [6], “binds”. The binding result was “binds” in series [7]; “no binding” in series [8]; “no binding” in series [9]; “binds” in series [10]; “binds” in series [11]; “no binding” in series [12]. In addition, the binding result in series [13] is listed as “binds”; in [14], “binds”; in [15] it was “binds”; in series [16] it was “no binding”.

B2: HU-B WT (6xHis-tagged) (natural protein, E. coli K-12)
chain: MNKSQLIDKIAAGADISKAAAGRALDAIIASVTESLKEGDDVALVGFGTFAVKERAARTGRNPQTGKEITIAAAKVPSFRAGKALKDAVN
notes: HU-B, isoform of the nucleoid-associated histone-like protein HU of E. coli; gene PCR-amplified from E. coli K-12 genomic DNA; ~90 amino acids, ~9.2-kDa polypeptide; Cloned between BamHI and HindIII of pQE-30; also called WT HU; source: E. coli XL-1 Blue (pQE-30), purified (Ni-NTA, 2 M NaCl wash)
For B2, the “stoichiometry N” value in [17] was 2 and 4 and 3 and 6.

B3: LysrHU-B (lysine-replaced HU-B, K83A and K86A) (natural protein, E. coli K-12)
chain: MNKSQLIDKIAAGADISKAAAGRALDAIIASVTESLKEGDDVALVGFGTFAVKERAARTGRNPQTGKEITIAAAKVPSFRAGAALADAVN
notes: source: E. coli XL-1 Blue (pQE-30), purified (Ni-NTA, 2 M NaCl wash)
Take B3: the “stoichiometry N” value in series [18] was determined as 2; in series [17] it was 4.

B4: LoodLysrHU-B (loop-deleted and lysine-replaced HU-B) (natural protein, E. coli K-12)
chain: MNKSQLIDKIAAGADISKAAAGRALDAIIASVTESLKEGDDVALVGFGTFASGGGGSGGGGSKVPSFRAGAALADAVN
notes: HU-B of E. coli K-12, the stretch before the deleted loop (residues 52 to 74 deleted); 11-residue glycine/serine-rich linker that replaces residues 52 to 74; HU-B of E. coli K-12, the stretch after the deleted loop, with K83A and K86A (numbers count on unchanged HU-B); Combines the LoodHU-B and LysrHU-B changes; source: E. coli XL-1 Blue (pQE-30), purified (Ni-NTA, 2 M NaCl wash)
For B4, the “stoichiometry N” value turned out to be 2 in [18] and 4 in series [17].

B5: LoodHU-B (loop-deleted HU-B) (natural protein, E. coli K-12)
chain: MNKSQLIDKIAAGADISKAAAGRALDAIIASVTESLKEGDDVALVGFGTFASGGGGSGGGGSKVPSFRAGKALKDAVN
notes: HU-B of E. coli K-12, the stretch before the deleted loop (residues 52 to 74 deleted); 11-residue glycine/serine-rich linker that replaces residues 52 to 74; HU-B of E. coli K-12, the stretch after the deleted loop (residues 52 to 74 deleted); The results call the loop 22 residues long, but residues 52 to 74 are 23 residues; source: E. coli XL-1 Blue (pQE-30), purified (Ni-NTA, 2 M NaCl wash)
Take B5: the “stoichiometry N” value in [18] was found to be 2; in series [17], 4.
